B1: Sre1-CTD WY mutant, residues 628-896, W702D/Y703D (domain or fragment, Schizosaccharomyces pombe, UniProt Q9UUD1 628-896, looked up)
chain: QHSKSSVHAELRELPECTANLIENSHADDVFSPNMVERLWVLAKCTRDSAQMSDSIISSLSDVLVLSPLEVLASDDAADLLDALLMESLSRKVEISEIEEIISLCPKNSSIIRHALLAKLVLFPENTADSLNEVLAAYKNTLDLCSQDKRKQSSVLKINLSKLFTLHSCLSLALQRLGYGDVSKRMYQEIFVPDSDADITPLSFIISWTALNTFAPICTSPKENDVVEKMAMYVRTAIGTLKIQDLKLSRKLINSCIDIGSRLQEDLGY
B2: Sre1-CTD ΔC-tail variant, residues 628-876, C644S/C672S (domain or fragment, Schizosaccharomyces pombe, UniProt Q9UUD1 628-876, looked up)
chain: QHSKSSVHAELRELPESTANLIENSHADDVFSPNMVERLWVLAKSTRDSAQMSDSIISSLSDVLVLSPLEVLASWYAADLLDALLMESLSRKVEISEIEEIISLCPKNSSIIRHALLAKLVLFPENTADSLNEVLAAYKNTLDLCSQDKRKQSSVLKINLSKLFTLHSCLSLALQRLGYGDVSKRMYQEIFVPDSDADITPLSFIISWTALNTFAPICTSPKENDVVEKMAMYVRTAIGTLKIQDLKLS

Assays:
AUC = biological target: the molecule itself; test: AUC
crystal structure = biological target: the molecule itself; test: crystal structure

Protein | stoichiometry N (AUC) | stoichiometry N (crystal structure)
B1 | 2 | –
B2 | – | 2

Source: PMC5099872 (Cell Research, 2016)
